Tests used:
[1] = test system: PbtAC (PbtA C-terminal domain) (Vibrio anguillarum RV22); test: EMSA; conditions: 1 mM Tris pH 7.5, 155 mM KCl, 0.1 mM DTT, 5% glycerol, 5 mM MgCl2, 1 mM EDTA, 0.3 mg/mL BSA, 30 min at 20 C, scale: free probe band ratio to no-protein control
[2] = target: T1, PbtAC (PbtA C-terminal domain) (Vibrio anguillarum RV22) (UniProt A0A289GIJ0); test: EMSA; conditions: 1 mM Tris pH 7.5, 155 mM KCl, 0.1 mM DTT, 5% glycerol, 5 mM MgCl2, 1 mM EDTA, 0.3 mg/mL BSA, 30 min at 20 C
T1 sequence: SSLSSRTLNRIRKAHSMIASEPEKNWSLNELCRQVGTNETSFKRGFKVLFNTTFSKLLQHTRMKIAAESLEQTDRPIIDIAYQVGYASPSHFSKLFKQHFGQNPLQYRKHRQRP

| Substance | binding signal [1] | other results |
| --- | --- | --- |
| PfrpC (Probe 9) | 0.41 |  |
| vgrG promoter (P2?) | 0.09 |  |
| LPS wzi(ab) promoter (P4) | 0.26 |  |
| vanT promoter (P3) | 0.81 |  |
| TATTGAGCAATTGAGGATTAATGAATGTGGCCACTAATATACTAATACCGATTGCTGAGTGGTGGGCTAGTTACGACTAAACGCGACGATTTTATACCTAATTGCGTTAGCGATGGCATGCATATTCAGCAAAAATAGCCTCCATTTATG (double strand) [Probe 12 (frpC)] |  | binding signal ([2]; scale: free probe band ratio to no-protein control): 0.7 |
| vipA promoter (P1?) | 0.2 |  |
| AAAAATAGACGACCCGATCTATTCAAGCTTGTTTAAAATAACAATCATAAACGTCGATTCACGCTCTTTTTATGCCTTATTCAGTTAGCAGGTAAAAGACAGAATCGGCACTATAAGTTCAATATGGATACCACAG (double strand) [Probe 5 (frpA)] |  | binding [2]: binds |
| hcp2 promoter (P6) | 0.28 |  |
| PfrpA (Probe 1) | 0.49 |  |
| TAAAACAAAACCAGAAAATAAAATAAAAATCAACAAAATTAAATGCTTAATTTTAATTAAGTTC (double strand) [Probe 4 (frpA, 6xAAAAT low complexity region)] |  | binding [2]: no binding |
| hcp1 promoter (P5) | 0.74 |  |
